Results from the domain aggregation screens of Martell et al. (2025).

Assay: soluble fraction after stress (log2 fold change); higher = more stays soluble; pooled small domains, quantitative proteomics
Details: stress: 75 degC
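Note: 20 min heating vs room temperature control held 20 min.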

Sequence	soluble fraction (log2)
HMVINKRELNVLSIYSRGSEKRAIILFPTGQTKLVKVGDTLNGGRVAAIGTTEIRYIKGGNNLVLKIPQ	-2.75
HMKTGIIYGVNGPVIYLKGDTGFKISEMVYVGPEKLVGEVIGLKKHMTTVQVFEETTGLKPGETVIGTGDA	-0.378
HMQISDEAALLAIVDRVIADNQGPLANYLGGKQSLLGWFVGQVMRATRGQAIPAVVNRLVGERLAAQREE	-0.877
HMTLNQEELMGKTEAILFAGGEPVSLDRIAQVLGVRTPVIDSIVSALQEKYNTPTSGIQLMRL	-0.267
HMSDNYYSILGIETDATTDMIKRAYRRLSLELHPDRTKDNPILTEKYKKVNEAYGVLNDNDRKHIYDLQNI	-0.109
HMEVDWLEVEKVIVSSSYSWMENSPKVKLLQEYIGVTADGIYGLGTWGAHRTHAVDLGFINLSYPIP	-0.129
HMSNIAQRLVLENALAKLNQEQQTIIDLRIIKGYSVAETARLLGKTESAVRTAQYRALKELAGILEED	-2.07
HMNEVRINTAHIEHKYLGEVKVLDIQEMRNARGRDADPLAFLAIRFWSPRGVLVRVKDSRDATPYWLIS	0.199
HMGETPEILRDWEAAQNAVNDMLSKYAPGGYMGKIIYPLLTPLKERLEAGERTPDLYNAIVEAT	0.119
HMKKILIVTNRSAGMVVYTIPEEGIRREFTPGETKKIPFEELEKLAYLSGGRTLMENFLKIVDTETTEELG	-2.24
HMLIADSDALRSQIESILNGNPNEVASFRAGKESLMGWFVGQVMRSTGGKADPKRTRELLQELLTK	-0.0249
HMNLDVEQIKKEALNQLIEIGNENDGIVTIKDFKKIDDISSLDEDDIEDIRNLLIENNIEIFE	0.0781
HMTDAYEVLDLNREASDEEIKKRYRELIREHHPDTLIAKGVPQEFVDLANDKMAAINAAYDRIEKDRGL	0.56
HMRGQGRILAMLKIQPEIATKDLAYLLGIRQQSLNELLKKLEKNSYVERRPSEKDRRVMVVHLTEKGKE	-0.782
HMNLVGGKINSLMTTKNVTIQDLSERSGLTVSQIELLLSGDKVPSLAVLIKIARGLGVRVGTFL	-1.12
HMDFYPARVKWFNKSKGFGFANIFKSNDDIFLHIETLKRSGLSDLETGEAIVLTVTEGPRGKMADTILTWD	-0.531
HMGTSQSAVKAILAQLISDENKQKPYSDEALSRLLQQQGIDIARRTVAKYREALNIPPAHQRK	0.26
HMGIDAIDNFVSKIIMKIEGLGESEVPTSTIGKFIMEGLQYLDTVAYVRYASVYKNFKEAKDFEQFVGSL	-0.0349
HMNNTIKFSVDIKNSGKRLDIFLSENVTQYTRSYLKRLIENSHVKLNNKILNSPSTKVKFQDQIIINNIE	-2.88
HMDYYASVDQVWRELGLAGPARRALIDDGLFKLSDLRKTSLAAVKELHGMGPNAIRILTTEMKKADLSFR	-2.15
HMDAVQAGKRVLIVDDLIATGGTAKAATDLIEKAGGTVVGFSFVMRLDGLDGLDKLDGKPSSSLIAMP	0.193
HMQFLGKVTVTHARQANLRAQPSMDAAIVGKVNPGEVYNVVSIPKTSWYEIQLQNGKTVFIAAGMVSFRM	-0.441
HMTSTEQQIEQFIGTLVSLGGSAGNQRLLEALGWQDSIYQRVKQQLIDDGRIRPGRGRGGSVVLAE	-0.576
HMTQPAEINRLVEQMGSSDYKSRQEAYERLHQMGPGILDLIYPYRNHADPEIQTRVRELILSYRW	-0.0738
HMNVDSLPGEKAVVIKTIDNLRGTGQAVVNGLEWSAKSKDETIIDEGKVVRIVAVEGVKLVVEEE	0.0298
HMIHKTDAINLGQRLLKSSLKEFDVSLKDIPNKTLMYILSEYKFNSLDDLYREIGLGNVIPKLVALRMAP	-0.585
HMKGHQASTTWISERVKDIIKEDPTLGARKLQKRLEIHYNIELSYFKVWSGKNLQWMIFMVL	0.0846
HMEMSLGEKLKQARLTKNFSQEYMAEVLQISQKTYSNFENNKTKPDFSQIEEISKVLETSILEFLT	-1.12

Sequence	soluble fraction (log2)
HMQAKDVEVPDYVGKSFVSIKENNPNDFKFEVKSEYDESKEMGVILDQEPKGGSMKVKSGSTITVTV	0.156
HMLPDLQESIDELLNIVDQRLNTSFEELVSGVNTTEKAIAFFLALLETIKWGFIKAEQTNNENKINIEKNY	-0.146
HMVFSKEELLFNSDSLLSLYPNDNKLLETILSEKIDHAVKNNDMSMYKEILVIDPKNPLANYHLLM	0.354
HMGIMSEITHRVLRLLGLLESRSTWTGSDLAERLGVTQRTIRRDVIRLRELGYQVDSVQGLDGGYRMS	-2.65
HMGISGSDLEKMIRNILVNNTDVVETIKSGQDKKGKKQKFLQGLIMKEARGQTDPREAASLLAKLLE	-0.108
HMLAKYEIIKQDIIQMIEEKKFKPGDKIYSEGELKKIYNVSSTTVVRALQDLVLSGYLIRKQGEGTYVRK	-3.2
HMVNINEVEVSRDLAHAKVFVTFVGDRTDEINTQALKVLNAAQGFLRSRIASNNHMRTTPRIHF	-0.567
HMSHANAALTPRARLRLAKLIVEEHWPVATAAKMFMVSPPTARKWATRFRAEGPAGMADRSSRP	-1.63
HMKQQTRAELLDEFAKAHAERGLYFNRDYEQGEIQALQPDKAREYLQSALEARTERQQASEQDR	0.262
HMSHGFVHLKGAVQHPGIYPVKENTRWDEVVKAAGGLTAAADIQQVNLAKVASDQESLYVPEKGET	0.149
HMTEFDVIMKSFGSEKIKVIKEVRAITGLGLAEAKALVEGVPAKIKEQVSKDDAEALKKQLEAVGAEVEL	-0.0848
HMALKRVAPQGEDKLSAQLDGVEFDKLIPWLGMLEHDHRIAIVNLSIDRANATGLVNARVIL	0.115
HMEDQVITQFNMRLIRAVMPQGAPMIVVYEDPKDYPGLFVARLFDGRKSTHLIALADTLEDI	-0.31
HMDPASYEARLSTLREQGAQQLDPVRFQYLATLAQRLPTQTPGVALILANKLRAGLSDYEQRLSEAGS	-0.0569
HMPQKIVIQKGVVIKKRERSDAWQIYITVKGKKPIRKSANTDNVEKAKQMALTLFAEKNYKVENNLPIQ	-1.17
HMDDATTQLADRLLDLRRKAGYSQEQLADLLGVSRQAISKWEGAQGRPEVDNVVKLAQIYRVSTDFILTGS	-0.698
HMNLLPAGTYKLKDLVTAEDEEIGAKKGDVVIAHEDTPPSDRVLGVDIFPVIHKNTSKKIYVSLEDI	0.322
HMEYFDDEELDRYKGRTSDSFTDDEAEEFREVMMTMHPEEVKAWNRSLILRDVAMPDQIKDDYIMLAG	-0.141
HMSKEGLASLLEDINGLGAIRRKTLIDHFGSVAKIRGARPEEIAALPGMGRKIAEHILASLRED	-0.541
HMKIEEVIEKLKTDSIISRKEYEDIVRQINPNLSDRTIFWQLAKLQDMGVLQKIGQNSFHVRN	-0.183
HMNISALKGKIGEVYLKIPAHNAGKGKVLISLKGTHHELYAITRSGEDISSGEFVKVIEIEDEILVVEK	-2.05
HMDGEITLYKVVGYIKASDFDDKKNGFVIADDYITKRQAEDTMYEWKRKKTYPYLEIKEYKGKDPYK	0.255
HMNKEQIASNIAEARKRSGLNQSELARRLGIRPQSVQQWEKGTATPKLDRLTAIAQVLGVSLESLTG	-0.0463
HMDDPYAGLRQRAYLFLRERDGAVPEEELIEHVFGSSGNPALWRPLLRQVLGADDRLDLRADGYWALRG	-0.187
HMGYPYDTVTTAKVNLRAKRSTSSDILKKIPEGATVTVKGVTGTFASVDYNGTSGYVKVDYLV	-0.46
HMGIVYGVIKENWDQDHPGMVKVEILQGESGKNVSDWIPVMSPYAGKEFGAYALPEIGTQAVVAFE	0.24
HMTVSRRYTENEMETALKAYLATHNFISRRDMQQEFALTIYSARKWLNHFVDVGLIERIGLKNAPIYKL	-0.0893
